From article PMC2716658 (Nature structural & molecular biology, 2009)

B1: Sra1 (natural protein)
chain: MAAQVTLEDALSNVDLLEELPLPDQQPCIEPPPSSLLYQPNFNTNFEDRNAFVTGIARYIEQATVHSSMNEMLEEGQEYAVMLYTWRSCSRAIPQVKCNEQPNRVEIYEKTVEVLEPEVTKLMNFMYFQRNAIERFCGEVRRLCHAERRKDFVSEAYLITLGKFINMFAVLDELKNMKCSVKNDHSAYKRAAQFLRKMADPQSIQESQNLSMFLANHNKITQSLQQQLEVISGYEELLADIVNLCVDYYENRMYLTPSEKHMLLKVMGFGLYLMDGSVSNIYKLDAKKRINLSKIDKYFKQLQVVPLFGDMQIELARYIKTSAHYEENKSRWTCTSSGSSPQYNICEQMIQIREDHMRFISELARYSNSEVVTGSGRQEAQKTDAEYRKLFDLALQGLQLLSQWSAHVMEVYSWKLVHPTDKYSNKDCPDSAEEYERATRYNYTSEEKFALVEVIAMIKGLQVLMGRMESVFNHAIRHTVYAALQDFSQVTLREPLRQAIKKKKNVIQSVLQAIRKTVCDWETGHEPFNDPALRGEKDPKSGFDIKVPRRAVGPSSTQLYMVRTMLESLIADKSGSKKTLRSSLEGPTILDIEKFHRESFFYTHLINFSETLQQCCDLSQLWFREFFLELTMGRRIQFPIEMSMPWILTDHILETKEASMMEYVLYSLDLYNDSAHYALTRFNKQFLYDEIEAEVNLCFDQFVYKLADQIFAYYKVMAGSLLLDKRLRSECKNQGATIHLPPSNRYETLLKQRHVQLLGRSIDLNRLITQRVSAAMYKSLELAIGRFESEDLTSIVELDGLLEINRMTHKLLSRYLTLDGFDAMFREANHNVSAPYGRITLHVFWELNYDFLPNYCYNGSTNRFVRTVLPFSQEFQRDKQPNAQPQYLHGSKALNLAYSSIYGSYRNFVGPPHFQVICRLLGYQGIAVVMEELLKVVKSLLQGTILQYVKTLMEVMPKICRLPRHEYGSPGILEFFHHQLKDIVEYAELKTVCFQNLREVGNAILFCLLIEQSLSLEEVCDLLHAAPFQNILPRVHVKEGERLDAKMKRLESKYAPLHLVPLIERLGTPQQIAIAREGDLLTKERLCCGLSMFEVILTRIRSFLDDPIWRGPLPSNGVMHVDECVEFHRLWSAMQFVYCIPVGTHEFTVEQCFGDGLHWAGCMIIVLLGQQRRFAVLDFCYHLLKVQKHDGKDEIIKNVPLKKMVERIRKFQILNDEIITILDKYLKSGDGEGTPVEHVRCFQPPIHQSLASS
B2: WAVE1 (subunit of the recombinant human WRC) (natural protein)
chain: MPLVKRNIDPRHLCHTALPRGIKNELECVTNISLANIIRQLSSLSKYAEDIFGELFNEAHSFSFRVNSLQERVDRLSVSVTQLDPKEEELSLQDITMRKAFRSSTIQDQQLFDRKTLPIPLQETYDVCEQPPPLNILTPYRDDGKEGLKFYTNPSYFFDLWKEKMLQDTEDKRKEKRKQKQKNLDRPHEPEKVPRAPHDRRREWQKLAQGPELAEDDANLLHKHIEVANGPASHFETRPQTYVDHMDGSYSLSALPFSQMSELLTRAEERVLVRPHEPPPPPPMHGAGDAKPIPTCISSATGLIENRPQSPATGRTPVFVSPTPPPPPPPLPSALSTSSLRASMTSTPPPPVPPPPPPPATALQAPAVPPPPAPLQIAPGVLHPAPPPIAPPLVQPSPPVARAAPVCETVPVHPLPQGEVQGLPPPPPPPPLPPPGIRPSSPVTVTALAHPPSGLHPTPSTAPGPHVPLMPPSPPSQVIPASEPKRHPSTLPVISDARSVLLEAIRKGIQLRKVEEQREQEAKHERIENDVATILSRRIAVEYSDSEDDSEFDEVDWLE

Key:
[1] = target: B2; experiment: AUC
[2] = target: B1; experiment: co-expression and purification of the complex

| Binder | stoichiometry N [1] | binding result [2] |
| --- | --- | --- |
| Abi2 (subunit of the recombinant human WRC) (natural protein) MAELQMLLEEEIPGGRRALFDSYTNLERVADYCENNYIQSADKQRALEETKAYTTQSLASVAYLINTLANNVLQMLDIQASQLRRMESSINHISQTVDIHKEKVARREIGILTTNKNTSRTHKIIAPANLERPVRYIRKPIDYTILDDIGHGVKWLLRFKVSTQNMKMGGLPRTTPPTQKPPSPPMSGKGTLGRHSPYRTLEPVRPPVVPNDYVPSPTRNMAPSQQSPVRTASVNQRNRTYSSSGSSGGSHPSSRSSSRENSGSGSVGVPIAVPTPSPPSVFPAPAGSAGTPPLPATSASAPAPLVPATVPSSTAPNAAAGGAPNLADGFTSPTPPVVSSTPPTGHPVQFYSMNRPASRHTPPTIGGSLPYRRPPSITSQTSLQNQMNGGPFYSQNPVSDTPPPPPPVEEPVFDESPPPPPPPEDYEEEEAAVVEYSDPYAEEDPPWAPRSYLEKVVAIYDYTKDKEDELSFQEGAIIYVIKKNDDGWYEGVMNGVTGLFPGNYVESIMHYSE | 1 |  |
| B1 | 1 |  |
| HSPC300 (natural protein) MAGQEDPVQREIHQDWANREYIEIITSSIKKIADFLNSFDMSCRSRLATLNEKLTALERRIEYIEARVTKGETLT | 1 |  |
| Nap1 (natural protein) MSRSVLQPSQQKLAEKLTILNDRGVGMLTRLYNIKKACGDPKAKPSYLIDKNLESAVKFIVRKFPAVETRNNNQQLAQLQKEKSEILKNLALYYFTFVDVMEFKDHVCELLNTIDVCQVFFDITVNFDLTKNYLDLIITYTTLMILLSRIEERKAIIGLYNYAHEMTHGASDREYPRLGQMIVDYENPLKKMMEEFVPHSKSLSDALISLQMVYPRRNLSADQWRNAQLLSLISAPSTMLNPAQSDTMPCEYLSLDAMEKWIIFGFILCHGILNTDATALNLWKLALQSSSCLSLFRDEVFHIHKAAEDLFVNIRGYNKRINDIRECKEAAVSHAGSMHRERRKFLRSALKELATVLSDQPGLLGPKALFVFMALSFARDEIIWLLRHADNMPKKSADDFIDKHIAELIFYMEELRAHVRKYGPVMQRYYVQYLSGFDAVVLNELVQNLSVCPEDESIIMSSFVNTMTSLSVKQVEDGEVFDFRGMRLDWFRLQAYTSVSKASLGLADHRELGKMMNTIIFHTKMVDSLVEMLVETSDLSIFCFYSRAFEKMFQQCLELPSQSRYSIAFPLLCTHFMSCTHELCPEERHHIGDRSLSLCNMFLDEMAKQARNLITDICTEQCTLSDQLLPKHCAKTISQAVNKKSKKQTGKKGEPEREKPGVESMRKNRLVVTNLDKLHTALSELCFSINYVPNMVVWEHTFTPREYLTSHLEIRFTKSIVGMTMYNQATQEIAKPSELLTSVRAYMTVLQSIENYVQIDITRVFNNVLLQQTQHLDSHGEPTITSLYTNWYLETLLRQVSNGHIAYFPAMKAFVNLPTENELTFNAEEYSDISEMRSLSELLGPYGMKFLSESLMWHISSQVAELKKLVVENVDVLTQMRTSFDKPDQMAALFKRLSSVDSVLKRMTIIGVILSFRSLAQEALRDVLSYHIPFLVSSIEDFKDHIPRETDMKVAMNVYELSSAAGLPCEIDPALVVALSSQKSENISPEEEYKIACLLMVFVAVSLPTLASNVMSQYSPAIEGHCNNIHCLAKAINQIAAALFTIHKGSIEDRLKEFLALASSSLLKIGQETDKTTTRNRESVYLLLDMIVQESPFLTMDLLESCFPYVLLRNAYHAVYKQSVTSSA | 1 |  |
| B2 |  | binds |
